Experimental data reported in PMC6111841.
Values joined by “and” are separate entries in the source; they are usually repeats but may differ in a detail not shown here. Equal values may be shown once.

Legend:
HelD (Bacillus subtilis) [1] = target: HelD (Bacillus subtilis) (UniProt O32215); assay: SEC; Superdex 200 Increase 10/300 GL, Buffer A (20 mM HEPES pH 7.5, 150 mM NaCl), 500 uL purified protein, 0.5 mL/min, 4 °C
HelD (Bacillus subtilis) [2] = target: HelD (Bacillus subtilis) (UniProt O32215); assay: AUC; sedimentation velocity, HelD 5 uM in Buffer A (20 mM HEPES pH 7.5, 150 mM NaCl), 40,000 rpm, 4 °C, c(s) model in SEDFIT

Chain of HelD (O32215 whole entry): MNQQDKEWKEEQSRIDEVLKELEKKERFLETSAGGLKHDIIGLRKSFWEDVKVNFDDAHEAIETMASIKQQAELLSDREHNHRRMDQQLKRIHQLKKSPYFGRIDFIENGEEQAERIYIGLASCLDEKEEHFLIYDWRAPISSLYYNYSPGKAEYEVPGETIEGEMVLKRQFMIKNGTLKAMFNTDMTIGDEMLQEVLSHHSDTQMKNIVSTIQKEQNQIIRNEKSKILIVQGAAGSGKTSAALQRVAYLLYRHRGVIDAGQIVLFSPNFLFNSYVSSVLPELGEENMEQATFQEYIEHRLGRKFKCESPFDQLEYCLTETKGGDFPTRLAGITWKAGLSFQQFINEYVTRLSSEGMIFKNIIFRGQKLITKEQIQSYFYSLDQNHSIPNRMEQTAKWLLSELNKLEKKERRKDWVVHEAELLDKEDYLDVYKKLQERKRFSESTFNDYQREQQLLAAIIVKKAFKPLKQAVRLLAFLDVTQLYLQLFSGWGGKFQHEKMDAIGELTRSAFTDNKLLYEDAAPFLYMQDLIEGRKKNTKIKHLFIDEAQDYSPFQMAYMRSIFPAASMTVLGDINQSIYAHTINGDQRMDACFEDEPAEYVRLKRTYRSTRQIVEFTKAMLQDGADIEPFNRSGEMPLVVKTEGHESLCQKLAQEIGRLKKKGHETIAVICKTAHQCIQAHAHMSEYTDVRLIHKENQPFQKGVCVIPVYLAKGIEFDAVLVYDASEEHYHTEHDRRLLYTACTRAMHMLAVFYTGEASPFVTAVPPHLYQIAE

## HelD (from UniProt O32215 1-774) (natural protein)
HelD (Bacillus subtilis) [1]
  stoichiometry N: 2 and 3
HelD (Bacillus subtilis) [2]
  population of higher order oligomers: 20%
